The text below walks through data of patent US8124424B2, “Single molecule-format bioluminescent probe” (National Institute of Advanced Industrial Science and …, priority 2007, dated 2012).

Test [1] has as its target T1, AR LBD (Homo sapiens, UniProt P10275).
T1 sequence (P10275 672-910): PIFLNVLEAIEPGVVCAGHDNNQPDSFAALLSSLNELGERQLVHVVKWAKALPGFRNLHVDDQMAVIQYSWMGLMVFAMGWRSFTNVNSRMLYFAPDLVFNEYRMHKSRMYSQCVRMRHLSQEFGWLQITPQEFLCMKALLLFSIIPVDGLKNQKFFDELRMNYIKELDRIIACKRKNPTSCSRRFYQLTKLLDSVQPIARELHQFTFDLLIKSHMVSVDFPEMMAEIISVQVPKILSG
Briefly: Inhibitory effects of androgen antagonists on DHT-induced luminescence, HeLa cells carrying pAR-NC and pTK-RLuc. The class given is cell-based. The arrangement: The cDNA-encoding AR LBD (672-910 AA) was modified by PCR; expressed in transfected cells; host or cells: HeLa. Particulars: 5×10^−4 M antagonist 20 min, then 10^−5 M DHT 20 min, FIG. 8. The method, then:
HeLa cells were transfected with pAR-NC and pTK-RLuc, and extensively incubated for 16 h. […] The luminescence intensities of each well were determined with a Dual-luciferase assay kit (Promega).

The subject of test [2] is AR LBD. Briefly: Comparison of the DHT-induced luminescence of probes pAR-CN, pAR-NC, pAR-mut in HeLa cells. It counts as cell-based, human. To be noted: 10^−5 M DHT stimulation, FIG. 3.
Procedure: Cervical carcinoma-derived HeLa cells were sub-cultured in 12-well plates in Dulbecco's modified eagle's medium (DMEM; Sigma) supplemented with 10% steroid-free fetal bovine serum (FBS) and 1% penicillin-streptmycin (P/S) at 37° C. in a 5% CO2 incubator. HeLa cells in 12-well plates were transfected with pAR-NC, pAR-CN, or pAR-mut using a transfection reagent, TransIT-LT1 (Minis), which guarantees about 8% transfection efficiency to HeLa cells when incubated for 24 h. The cells were incubated for 12 h and then used for the following experiments.
HeLa cells in 12-well plates were transfected with the plasmids and incubated for 16 h. […] The recovered enzyme activities by ligands were estimated with a luminescence substrate kit, Bright Glo (Promega) or Dual-luciferase assay kit (Promega), according to the manufacturer's manuals. […] After a 3 min incubation at 37° C., the luminescence intensities from the cell lysates were recorded with a luminometer (Minilumat LB9506; Berthold). The protein amounts in the cell lysates were subsequently determined using a Bradford reagent for a normalization of the luminescence intensities. In specific, the firefly luminescence, which was normalized against the determined protein amount, was expressed as “RLU/protein (Bright Glo)”. The unit means the firefly luminescence intensity from the 1 μg of cell lysate.
In test [3] the target is T1, AR LBD. As to the kind of experiment: Androgenic activity of ligands with pSimbe (CBLuc) probes in MCF-7 cells (dose-response, time-course, repetitive measurement, ligand panel). The class given is cell-based. To be noted: two stimulations with 10^−5 M DHT for 20 minutes with medium replacement, FIG. 21. As for the experimental part: As controls, vehicle #1 (0.1% DMSO) and vehicle #2 (0.02M phosphoric buffer saline (PBS)) were tested.

In test [4] the target is T1, AR LBD. As to the kind of experiment: Ligand selection of pSimbe-LXA probe in four cell lines (MCF-7, CHO, HeLa, NIH 3T3). The arrangement: The cDNA-encoding AR LBD (672-910 AA) was modified by PCR; expressed in transfected cells; host or cells: HeLa. The class given is cell-based. Particulars: 10^−5 M E2, T, DHT, 20 minutes, FIG. 16.
Test [5] deals with T2, androgen receptor ligand binding domain (AR LBD; 672-910 AA) (human, UniProt P10275 672-910).
T2 sequence (looked up): T1 sequence (P10275 672-910)
As to the kind of experiment: cell-based or functional assay.

`CC12CC1(C)C(=O)N(c1cc(Cl)cc(Cl)c1)C2=O` (centres unmarked) [procymidone]: the “percentage inhibition of the DHT-induced luminescence” value at AR LBD [1] amounted to 68%.
As to “pAR-mut: plasmid/probe with an alanine mutant (AQNLF) of the FQNLF motif (RGAAQNLFQSV)”, the “luminescence intensities of probe-carrying cells compared among the three probes” value in the test with AR LBD [2] is on record as “four times weaker luminescence intensities than the cells carrying pAR-NC”.
Regarding “pSimbe-LXA: CBLuc probe with AR LBD and reverse sequence of LXXLL motif from Xenopus TIF2 (SSDQLLRHLIKHK)”, the “reversibility of luminescence on repeated DHT stimulation” value in the test with AR LBD [3] is listed as “reversible recovery in the luminescence intensities”. In addition, the “luminescence intensity versus the background in cell lines” value in the test with AR LBD [4] is “marked increase in the luminescence intensity versus the background”.

B1: AR N-terminal motif peptide (11 AA; 20RGAFQNLFQSV30), 'FQNLF' motif of human AR NTD (peptide)
peptide: RGAFQNLFQSV
With B1, the “t1/2 of the rise in luminescence after 10^-6 M DHT, HeLa cells carrying pAR-NC” value in test [5] came out at 4.5 min.
